{
  "source": "IntAct's records for PubMed 14685257",
  "parents": {"B1": {"name": "Polyadenylate-binding protein-interacting protein 2 (Homo sapiens), Q9BPZ3 (parent)", "chain": "MKDPSRSSTSPSIINEDVIINGHSHEDDNPFAEYMWMENEEEFNRQIEEELWEEEFIERCFQEMLEEEEEHEWFIPARDLPQTMDQIQDQFNDLVISDGSSLEDLVVKSNLNPNAKEFVPGVKYGNI"}},
  "data": [
    {"variants_of": "B1", "details": "with pabp1_human PABPC1, P11940", "values": [
      {"variant": "MKDPSRSSTSPSIINEDVIINGHSHEDDNPFAEYMWMENEEEFNRQIEEELWEEEFIERCFQEMLEEEEEHEWFIPARDLPQTMDQIQDQFNDLVISDGSSLEDLVVKSNANPNAKEFVPGVKYGNI", "note": "[L111A]", "effect of a mutation on the interaction": "decreasing interaction"},
      {"variant": "MKDPSRSSTSPSIINEDVIINGHSHEDDNPFAEYMWMENEEEFNRQIEEELWEEEFIERCFQEMLEEEEEHEWFIPARDLPQTMDQIQDQFNDLVISDGSSLEDLVVKSNLNPNAKAFVPGVKYGNI", "note": "[E117A]", "effect of a mutation on the interaction": "decreasing interaction"},
      {"variant": "MKDPSRSSTSPSIINEDVIINGHSHEDDNPFAEYMWMENEEEFNRQIEEELWEEEFIERCFQEMLEEEEEHEWFIPARDLPQTMDQIQDQFNDLVISDGSSLEDLVVKSNLNPNAAEFVPGVKYGNI", "note": "[K116A]", "effect of a mutation on the interaction": "decreasing interaction"},
      {"variant": "MKDPSRSSTSPSIINEDVIINGHSHEDDNPFAEYMWMENEEEFNRQIEEELWEEEFIERCFQEMLEEEEEHEWFIPARDLPQTMDQIQDQFNDLVISDGSSLEDLVVKSNLNPNAKEAVPGVKYGNI", "note": "[F118A]", "effect of a mutation on the interaction": "disrupting interaction"},
      {"variant": "MKDPSRSSTSPSIINEDVIINGHSHEDDNPFAEYMWMENEEEFNRQIEEELWEEEFIERCFQEMLEEEEEHEWFIPARDLPQTMDQIQDQFNDLVISDGSSLEDLVVKSNLNPNAKEFVAGVKYGNI", "note": "[P120A]", "effect of a mutation on the interaction": "decreasing interaction"},
      {"variant": "MKDPSRSSTSPSIINEDVIINGHSHEDDNPFAEYMWMENEEEFNRQIEEELWEEEFIERCFQEMLEEEEEHEWFIPARDLPQTMDQIQDQFNDLVISDGSSLEDLVVKSNLNANAKEFVPGVKYGNI", "note": "[P113A]", "effect of a mutation on the interaction": "decreasing interaction"},
      {"variant": "MKDPSRSSTSPSIINEDVIINGHSHEDDNPFAEYMWMENEEEFNRQIEEELWEEEFIERCFQEMLEEEEEHEWFIPARDLPQTMDQIQDQFNDLVISDGSSLEDLVVKSNLNPNLKEFVPGVKYGNI", "note": "[A115L]", "effect of a mutation on the interaction": "decreasing interaction"}
    ]}
  ]
}
